Laboratory results reported in patent US10813913B2, “Small molecules that mimic or antagonize actions of granulocyte colony-stimulating-factor (G-CSF)” (UNIVERSITY OF SOUTH FLORIDA, priority 2016, dated 2020).
Entries after “also recorded” stand apart in the source; their conditions may differ.

Columns and labels:
[1] = tested on: PKCδVIII and Bcl2 expressed in SH-SY5Y neuronal cells; assay: Western blot of PKCδVIII and Bcl2 in SH-SY5Y neuronal cells; assay type: cell-based, human; settings: SH-SY5Y, G-CSF 100 ng/mL (5.3 nM), 24 h
Method: (§1) THP-1 cells or SH-SY5Y cells 3×10^6 cells in 5 mL media in a 25 cm^2 flask were treated with 100 ng/mL G-CSF or three different concentrations of the test drug for 24 h. In addition, a set of flasks were co-incubated with the combination of G-CSF and 3 concentrations of test drug. Whole cell lysates ([…]) were separated on 10% polyacrylamide gel electrophoresis-SDS (PAGE-SDS). Proteins were electrophoretically transferred to nitrocellulose membranes, blocked with 5% nonfat milk prepared on Tris buffered saline containing 0.1% Tween 20, washed and incubated with a polyclonal antibody against either Bcl2 (Cell Signaling, Danvers, Mass.) or PKCδVIII-specific polyclonal antibody (Jiang, K., et al. Biochemistry 2008, 47, 787-797). The house keeping gene GAPDH was used as an internal standard. Following incubation with anti-rabbit IgG-HRP, enhanced chemiluminesence (Pierce™, Thermo Scientific, Walthahm, Mass.) was used for detection and the gels were analyzed using UN-SCAN-IT™ software (Silk Scientific, Inc., Orem, Utah).
(§2) Statistical analysis. Densitometric results from Western blots were analyzed with two-tailed t-tests when only two groups were compared. In other analyses where 3 groups were compared, one-way ANOVA followed by t-tests with Dunnett's corrections for multiple comparisons was utilized. All data was presented as mean±SEM. All statistical analysis of data was done via PRISM4 or PRISM5 statistical analysis software (GraphPad Prism, La Jolla, Calif.). Neurohistologic analyses are performed using ANOVA. All comparisons were considered significant at level of P<0.05.

[2] = tested on: PKCδVIII and Bcl2 expressed in THP-1 monocytic cells; assay: Western blot of PKCδVIII and Bcl2 in THP-1 monocytic cells; assay type: cell-based, human; settings: THP-1, G-CSF 200 ng/mL (10.6 nM), 24 h
Method: as §1, with “In” for “THP-1 cells or SH-SY5Y cells 3×10^6 cells in 5 mL media in a 25 cm^2 flask were treated with 100 ng/mL G-CSF or three different concentrations of the test drug for 24 h. In”
as §2

mouse model of TBI = settings: earlier G-CSF work stated as background to Example 6; cited from earlier work

B1: G-CSF: Granulocyte-colony stimulating factor, a glycoprotein cytokine; natural ligand of G-CSF-R; SEQ ID NO: 1 (protein, listed as Homo sapiens)
chain: MAGPATQSPMKLMALQLLLWHSALWTVQEATPLGPASSLPQSFLLKCLEQVRKIQGDGAALQEKLVSECATYKLCHPEELVLLGHSLGIPWAPLSSCPSQALQLAGCLSQLHSGLFLYQGLLQALEGISPELGPTLDTLQLDVADFATTIWQQMEELGMAPALQPTQGAMPAFASAFQRRAGGVLVASHLQSFLEVSYRVLRHLAQP
[1]
  Bcl2 expression: much greater at equivalent concentrations; also recorded: increased
  PKCδVIII expression: much greater at equivalent concentrations; also recorded: increased
[2]
  Bcl2 expression: increased the expression of PKCδVIII and Bcl2
  PKCδVIII expression: increased the expression of PKCδVIII and Bcl2
Mouse model of TBI
  recovery in the radial arm water maze (RAWM): significantly promoted recovery
